Consider 2 molecules from patent publication US20100048478A1 (University of Pennsylvania, published 2010).

Test [1] deals with TRAIL receptor DR5 on SK-Hep1 human hepatoma cells (human) (UniProt O14763). Kind of test: cell-based or functional assay.
Test [2] addresses T1, murine TWEAK, full length, on transiently transfected CHO cells (murine, UniProt O54907 1-249).
T1 construct: whole, on cells; also called cell surface TWEAK
T1 sequence (looked up): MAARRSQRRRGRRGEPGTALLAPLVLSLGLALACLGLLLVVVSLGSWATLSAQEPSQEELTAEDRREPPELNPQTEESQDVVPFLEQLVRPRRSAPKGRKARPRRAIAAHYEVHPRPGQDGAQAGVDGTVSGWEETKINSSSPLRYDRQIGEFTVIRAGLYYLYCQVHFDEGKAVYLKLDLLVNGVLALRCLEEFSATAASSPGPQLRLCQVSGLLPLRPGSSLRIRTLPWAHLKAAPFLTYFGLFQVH
Kind of test: flow cytometry on CHO cells transiently transfected with murine TWEAK, 4 C, detected with anti-mouse TRAIL Ab. Here is the method: B) CHO cells were transiently transfected with a murine TWEAK cDNA expression construct, and after 48 h, were incubated at 4° C. with purified Fn14-TRAIL or rTRAIL in sodium azide-containing buffer. The presence of membrane-bound TWEAK on transfectants, and the binding of Fn14-TRAIL to them, was verified by flow cytometry, using anti-mouse TWEAK Ab (B.1) and anti-mouse TRAIL Ab (B.2-5) as detecting Ab, respectively. (B.1) TWEAK is expressed on transfected CHO cells, as detected using anti-TWEAK Ab (solid black line) versus isotype control (filled histogram); (B.2) TRAIL is not detectable on CHO cells, when analyzed using anti-TRAIL Ab (solid black line) versus isotype control (filled histogram). (B.3 and B.4) TRAIL epitopes are enhanced when Fn14-TRAIL is added to TWEAK-expressing, as opposed to TWEAK-negative, CHO cells. Anti-TRAIL Ab and isotype control are represented by solid black line and filled histogram, respectively. […] Isotype control is shown as filled histogram.
To validate the identity of expressed Fn14-TRAIL, its ability to bind to Fn14's ligand, TWEAK, was assessed. To this end, CHO cells were transiently transfected with a murine TWEAK cDNA expression construct (in the pcDNA3 vector), and after 48 h, transfectants were incubated at 4° C. with purified Fn14-TRAIL or soluble TRAIL.
A general note: A flow cytometer gives signals particle by particle.

Chain of TRAIL receptor DR5 on SK-Hep1 human hepatoma cells (human) (O14763 56-440): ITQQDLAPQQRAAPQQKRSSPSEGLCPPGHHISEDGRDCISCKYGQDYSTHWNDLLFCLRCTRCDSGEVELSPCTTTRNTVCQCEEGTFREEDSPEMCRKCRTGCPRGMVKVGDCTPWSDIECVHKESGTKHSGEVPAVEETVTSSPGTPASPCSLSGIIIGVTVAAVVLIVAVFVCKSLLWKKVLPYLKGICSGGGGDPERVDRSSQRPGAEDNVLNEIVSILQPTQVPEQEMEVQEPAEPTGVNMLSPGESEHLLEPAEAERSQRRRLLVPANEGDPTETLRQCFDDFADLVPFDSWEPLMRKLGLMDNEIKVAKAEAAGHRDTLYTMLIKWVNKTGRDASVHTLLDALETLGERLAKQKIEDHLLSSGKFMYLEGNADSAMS

The molecule “purified untagged human Fn14-TRAIL protein” displayed a killing effect on SK-Hep1 cells (24 h, trypan blue live/dead count) in test [1] of 0.04 nM.

B1: soluble TRAIL (aa 118-291 of murine TRAIL) (ligand, UniProt P50592 118-291, looked up)
chain: PRGGRPQKVAAHITGITRRSNSALIPISKDGKTLGQKIESWESSRKGHSFLNHVLFRNGELVIEQEGLYYIYSQTYFRFQEAEDASKMVSKDKVRTKQLVQYIYKYTSYPDPIVLMKSARNSCWSRDAEYGLYSIYQGGLFELKKNDRIFVSVTNEHLMDLDQEASFFGAFLIN
notes: range 118-291
B1: the binding result in test [2] is “no binding”.
